Experimental data published in publication PMC10793675 (mAbs, 2023).
Changes are numbered by the printed parent chain.

T1: biotinylated avi-tagged canine PD-1 soluble protein (canine, biotin)
T1 chain: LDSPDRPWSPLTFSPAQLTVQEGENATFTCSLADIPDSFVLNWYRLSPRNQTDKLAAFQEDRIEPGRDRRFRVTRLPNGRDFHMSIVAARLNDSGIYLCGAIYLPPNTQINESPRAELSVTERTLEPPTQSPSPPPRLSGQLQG

B1: P3C6 soluble scFv (scFv, V domains shown)
VH: EVQLVQSGGDLVKPGGSLRLSCMASGFTFSKYGMSWVRQSPGKGLQWVADIAANGGTYYTDAVKGRFTISRDNAKNALYLQMDDLRAEDTAVYYCARWGGAPFDYWGQGTLVTVSS
VL: EIVMTQSPASLSLSQEEKVTITCRASQSVSSYLAWYQQKPGQAPKLLIYGTSNRATGVPSRFSGSGSGTDFSFTISSLEPEDVAVYYCQQGLQYPITFGKGTHLEIK
B2: P3C6mut3.1 full-length canine IgGD (antibody, V domains shown)
VH: B1 VH with L11V, A77T, D83N, D84S
VL: B1 VL
B3: P3C6mut3.2 full-length canine IgGD (antibody, V domains shown)
VH: B1 VH with L11V, M23V, A77T, D83N, D84S
VL: B1 VL
B4: P4B1 soluble scFv (scFv, V domains shown)
VH: EVQLVQSGGDVVKPGGSLRLSCVASGFTFNTYGMNWVRQSPGKGLQWVAAIANSGSTYYADAVRGRFTISRDNAKNTLYLQMNSLRAEDAAIYYCASGIWGDWFYYWGQGTLVTVSS
VL: SSVLTQPPSVSVSLGQTATISCSGESLTKYYAQWFQQKPGQAPMLVIYKDTERPSGIPDRFSGSSSGNTHTLTISGARAEDEADYYCESAVSADAVVFGGGTHLTVL

Legend:
[1] = target: T1, biotinylated avi-tagged canine PD-1 …; experiment: ELISA
[2] = target: canine PD-1 expressed on the surface of KTδ32 cells (Canis lupus familiaris, UniProt A0A090BAM7); experiment: flow cytometry on cells
[3] = target: recombinant canine PD-1 protein, His tag (Canis lupus familiaris, UniProt A0A090BAM7); experiment: SPR

binding result [1] | binding result [2] | binding half-life [3] [h] | koff [3] [s⁻¹] | kon [3] [M⁻¹ s⁻¹] | Binder
binds | binds |  |  |  | B1
 |  | 1.35 | 0.000143 | 131000 | B2
 | binds |  |  |  | B3
binds |  |  |  |  | B4
